Measurements reported in paper PMC4350099.
Values belong to the substance of their own block, whether it stands above or below them.

Target: 14-3-3ζ (UniProt P63104)
Assay: GST pull-down from co-transfected cells
Settings: reference: wild type

- binding against the reference (sites S1495): weaker
Substance: Notch4 (Notch4-ICD; Notch4-ΔhN4) ICD (from UniProt Q99466) S1495A

- binding against the reference (sites S1865): weaker
Substance: Notch4 (Notch4-ICD; Notch4-ΔhN4) ICD (from UniProt Q99466) S1865A

- binding against the reference (sites S1917): weaker
Substance: Notch4 (Notch4-ICD; Notch4-ΔhN4) ICD (from UniProt Q99466) S1917A

The next lines start with the substance.

Substance: Notch4 (Notch4-ICD; Notch4-ΔhN4) ICD (from UniProt Q99466) 4XA (S1495/1847/1865/1917A)
- binding against the reference (sites S1495,S1847,S1865,S1917): lost

Substance: Notch4 (Notch4-ICD; Notch4-ΔhN4) ICD (from UniProt Q99466) S1847A
- binding against the reference (sites S1847): weaker
